The values below come from US20080124335A1 (NATIONAL CEREBRAL AND CARDIOVASCULAR CENTER, published 2008).

No end group written: not given here.

For assay [1], the target named is T1, human FM-3 (human, UniProt Q9HB89 24-426).
T1 sequence: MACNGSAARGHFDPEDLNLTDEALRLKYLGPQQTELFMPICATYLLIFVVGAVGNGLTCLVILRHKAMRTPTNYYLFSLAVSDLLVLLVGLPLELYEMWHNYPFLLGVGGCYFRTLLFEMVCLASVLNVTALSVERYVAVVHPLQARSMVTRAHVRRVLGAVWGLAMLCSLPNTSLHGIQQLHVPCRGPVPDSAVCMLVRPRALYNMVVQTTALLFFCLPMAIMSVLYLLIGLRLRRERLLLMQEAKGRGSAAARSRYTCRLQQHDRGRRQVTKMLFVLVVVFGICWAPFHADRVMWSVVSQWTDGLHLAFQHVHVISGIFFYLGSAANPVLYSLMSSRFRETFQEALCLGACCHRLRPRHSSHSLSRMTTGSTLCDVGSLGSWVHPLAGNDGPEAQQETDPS
Briefly: radioligand competition: crude membrane fraction (10 µg) of CHO cells expressing human FM-3, 50 pM [^125I-Tyr^0]-NMS, filtration. How it is done:
(§1) The receptor binding test was conducted by an improvement of the Gottschall, et al. method (Gottschall, P. E., et al., Endocrinology, 127, 272, 1990). A crude cell membrane fraction was prepared from human FM-3 or human TGR1-expressed CHO cells. Also, human NMS ([Tyr⁰]-NMS) added with Tyr at the N terminus was radioactively labeled with ¹²⁵I and then purified on HPLC. The crude cell membrane fraction (10 μg) and the radiolabeled peptide (50 pM) were reacted at room temperature for 2 hours in a buffer supplemented with 0.05% CHAPS and 1% BSA in the presence of a competitive peptide. The reaction product was filtered to separate the bound from the unbound radiolabeled peptide. The radioactivity was measured with a TopCount liquid scintillation counter (Packard).

In assay [2] the target is T2, human TGR1 (human, UniProt Q9GZQ4 1-415). Briefly: radioligand competition: crude membrane fraction (10 µg) of CHO cells expressing human TGR1, 50 pM [^125I-Tyr^0]-NMS, filtration. How it is done:
as §1

The target of assay [3] is T2, human TGR1. Description: cell-based or functional assay.
Assay [4] concerns the target T1, human FM-3. Description: cell-based or functional assay.

T2 sequence (Q9GZQ4 other isoform, or with tags, fused parts or gaps): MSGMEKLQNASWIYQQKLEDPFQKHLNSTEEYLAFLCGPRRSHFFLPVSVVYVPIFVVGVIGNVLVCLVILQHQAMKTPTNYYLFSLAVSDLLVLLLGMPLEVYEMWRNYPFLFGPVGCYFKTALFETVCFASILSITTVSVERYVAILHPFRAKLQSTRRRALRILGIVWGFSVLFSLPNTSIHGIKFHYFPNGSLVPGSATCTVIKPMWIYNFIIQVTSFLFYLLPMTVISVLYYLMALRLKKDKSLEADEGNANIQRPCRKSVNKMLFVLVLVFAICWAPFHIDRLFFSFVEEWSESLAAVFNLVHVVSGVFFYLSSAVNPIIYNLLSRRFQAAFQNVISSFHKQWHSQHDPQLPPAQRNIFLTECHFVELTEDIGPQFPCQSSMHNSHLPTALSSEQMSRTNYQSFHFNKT

With ILQRGSGTAAVDFTKKDHTATWGRPFFLFRPRN (ends and bridges not checked, also called human NMS; NMS) [human neuromedin S], the IC50 in the assay with human FM-3 [1] is 1.2 nM; with human TGR1 [2], 0.1 nM. Moreover, the results for the “intracellular Ca ion level increase (calcium-mobilization assay, FLIPR), EC50” value in the assay with human TGR1 [3] and with human FM-3 [4] were 91 pM and 65 pM, respectively.
